The record followed here is paper PMC12678800.

Numbering of substitutions follows the chain as printed.

One data set deals with T1, TkoTpt1 K63A (Thermococcus kodakarensis, UniProt Q5JFX3 1-180, K63A).
T1 sequence: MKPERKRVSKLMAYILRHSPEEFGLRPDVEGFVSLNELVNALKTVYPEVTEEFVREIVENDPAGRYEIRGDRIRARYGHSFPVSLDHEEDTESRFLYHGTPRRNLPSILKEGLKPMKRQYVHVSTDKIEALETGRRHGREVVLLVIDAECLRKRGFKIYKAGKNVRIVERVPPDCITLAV
Kind of data set: X-ray crystallography.

The target in a further data set is T2, TkoTpt1 (Thermococcus kodakarensis, UniProt Q5JFX3 1-180).
T2 sequence: T1 sequence with A63K
Kind of data set: X-ray crystallography.

With AAAAAAAAAA (ssDNA, 5'-phospho-ADP-ribosylated, formed in situ from 5'-p-DNA and NAD+) [5'-p-ADPR-DNA (dA10 intermediate)], the binding result with TkoTpt1 K63A is recorded as “binds”. As for AAAAAAAAAA (ssDNA, 5'-phosphate (lost to NAD+ in the Appr>P complexes, giving 5'-OH DNA)) [5'-p-DNA (oligo dA10)], the binding result in the data set with TkoTpt1 is given as “binds”.
